PMC5039030, “DPP9 is a novel component of the N-end rule pathway targeting the tyrosine kinase Syk” (eLife, 2016)

B1: synthetic Syk (1–31) peptide covering the first 31 amino acids of full-length Syk (peptide)
peptide: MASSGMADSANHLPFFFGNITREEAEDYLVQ
notes: tyrosine kinase Syk, residues 1–31; also called Syk N-terminus peptide (1–31); Syk amino terminus peptide 1–31; source: synthetic peptide (custom-made by GenScript, >80% purity)
B2: Syk△MA (3–31) peptide (peptide)
peptide: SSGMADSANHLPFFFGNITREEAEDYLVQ
notes: tyrosine kinase Syk, residues 3–31; also called Syk (3–31); source: synthetic peptide (custom-made by GenScript, >80% purity)

Legend:
[1] = target: T1, recombinant DPP9-short (His-tagged DPP9 wild type) (UniProt Q86TI2 1-863); test: SPR; His-tagged DPP9 captured on a Ni2+ chelator chip (2500 to 3500 µRIU); peptide injected at 16 µM to 0.125 µM (Syk 1–31) or 32 µM to 1 µM (Syk 3–31); 20 mM Hepes, 150 mM NaCl, 0.005% Tween 20, 50 µM EDTA, pH 7.4; 40 µl/min; equilibrium binding analysis; conditions: both partners purified
T1 construct: DPP9, short isoform (DPP9-short); The His tag is named only for the SPR experiment; also called DPP9 wt; dipeptidylpeptidase 9

[2] = target: T2, DPP9 S730G (inactive DPP9 variant) (UniProt Q86TI2 1-863, S730G); test: as above; conditions: both partners purified
T2 construct: DPP9 with the active-site serine mutated to glycine; Parent construct is surmised to be DPP9-short as in m1; source: recombinant
T2 sequence (Q86TI2 whole entry S730G): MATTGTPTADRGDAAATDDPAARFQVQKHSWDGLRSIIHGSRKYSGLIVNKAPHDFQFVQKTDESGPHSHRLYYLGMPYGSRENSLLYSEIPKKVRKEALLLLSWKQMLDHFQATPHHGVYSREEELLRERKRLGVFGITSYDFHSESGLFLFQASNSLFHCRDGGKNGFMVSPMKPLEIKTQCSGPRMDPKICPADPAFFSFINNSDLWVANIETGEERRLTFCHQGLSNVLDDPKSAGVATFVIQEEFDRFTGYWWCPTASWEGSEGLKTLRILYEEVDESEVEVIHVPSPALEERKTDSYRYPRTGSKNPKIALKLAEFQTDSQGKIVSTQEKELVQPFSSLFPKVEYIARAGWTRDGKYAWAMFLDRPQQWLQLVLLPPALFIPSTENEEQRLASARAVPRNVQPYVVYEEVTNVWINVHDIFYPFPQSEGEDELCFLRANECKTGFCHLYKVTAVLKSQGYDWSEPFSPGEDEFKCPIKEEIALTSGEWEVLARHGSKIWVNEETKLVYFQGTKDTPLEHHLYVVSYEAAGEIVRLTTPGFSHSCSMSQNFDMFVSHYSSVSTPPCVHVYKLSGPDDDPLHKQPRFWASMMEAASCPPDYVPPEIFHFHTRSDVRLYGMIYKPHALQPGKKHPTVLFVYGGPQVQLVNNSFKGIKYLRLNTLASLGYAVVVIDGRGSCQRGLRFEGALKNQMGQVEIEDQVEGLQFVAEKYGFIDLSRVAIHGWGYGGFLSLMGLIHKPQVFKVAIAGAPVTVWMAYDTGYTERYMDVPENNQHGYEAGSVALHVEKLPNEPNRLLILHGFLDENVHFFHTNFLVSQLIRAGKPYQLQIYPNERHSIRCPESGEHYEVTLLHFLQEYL

T1 sequence (Q86TI2 whole entry, canonical isoform): as the sequence (Q86TI2 whole entry S730G) above, with G730S counted along it

| Binder | Kd [1] [µM] | Kd [2] [µM] |
| --- | --- | --- |
| B1 | 52 | 284 |
| B2 | 156 | – |
